Numbering of substitutions follows the chain as printed.

Assay [1] deals with T1, human LAG-3 protein with hFc tag (hLAG-3-hFc protein) (human, UniProt P18627 23-450).
T1 construct: also called immunogen 1; LAG-3 extracellular domain protein; not shown: human IgG Fc fragment (hFc) of the pCpC vector
T1 sequence: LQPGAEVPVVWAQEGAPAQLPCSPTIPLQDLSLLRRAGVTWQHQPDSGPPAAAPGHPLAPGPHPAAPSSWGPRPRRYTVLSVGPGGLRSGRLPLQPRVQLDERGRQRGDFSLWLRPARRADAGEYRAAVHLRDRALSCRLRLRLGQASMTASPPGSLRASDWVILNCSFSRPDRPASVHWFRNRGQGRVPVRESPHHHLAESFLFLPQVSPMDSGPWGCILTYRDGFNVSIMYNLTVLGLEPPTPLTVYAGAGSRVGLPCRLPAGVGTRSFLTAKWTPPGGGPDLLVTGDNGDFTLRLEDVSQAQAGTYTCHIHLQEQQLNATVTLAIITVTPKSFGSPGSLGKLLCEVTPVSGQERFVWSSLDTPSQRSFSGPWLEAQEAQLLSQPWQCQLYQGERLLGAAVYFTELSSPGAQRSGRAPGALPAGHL
In words: FACS, blocks LAG-3-hFc binding to MHC II on Raji; 0.000 nM. Here is the method: (§1) The FACS reaction plate incubating the Raji cells was centrifuged to discard the supernatant. The above mixture was added as 100 μl per well to Raji cells and incubated on ice for 1-2 hours. The plate was washed twice with blocking solution (PBS, 2% fetal bovine serum) by centrifugation, added with 100 microliters of fluorescent (Alexa 488)-labeled secondary antibodies per well, and incubated on ice for 1.0 hours. The plate was washed 2-3 times by centrifugation with blocking solution (PBS, 2% fetal bovine serum), added with 100 microliters of PBS per well to suspend cells, and detected using FACS (FACS Calibur, BD) and the results were analyzed. Wherein, the IgG control was murine IgG, and the data in the table is the inhibition rate (%).
Background: Flow cytometry measures light scatter and fluorescence of single cells or particles in a stream.

For assay [2], the target named is T2, LAG-3-hFc protein (human LAG-3 extracellular region with hFc tag) (human, UniProt P18627 23-450).
T2 construct: also called hLAG-3-hFc; LAG-3 protein; not shown: human IgG Fc fragment (hFc) of the pCpC vector
T2 sequence: T1 sequence
In words: FACS, inhibition of LAG-3-hFc binding to MHC II on Raji cells, antibody 0.823 nM. Here is the method: as §1

The target in assay [3] is T1, human LAG-3 protein with hFc tag …. The assay is described as follows: ELISA, hLAG-3-hFc coated; 0.0667 nM. As to the method:
(§2) The plate was sealed with plastic film and incubated overnight at 4° C. The plate was washed 2 times with the plate washing solution (PBS+0.01% Tween20) on the next day, and added with the blocking solution (PBS+0.01% Tween20+1% BSA) and blocked at room temperature for 1-2 hours. The blocking solution was poured out, and the plate was added with 50-100 μl of the antibody sample to be tested to each well, incubated at 37° C. for 1-2 hours, and washed 2-3 times with a plate washing solution (PBS+0.01% Tween20). HRP (horseradish peroxidase) labeled secondary antibody was added, and the plate was incubated at 37° C. for 1-2 hours, and washed 2-3 times with a plate washing solution (PBS+0.01% Tween20). 100 μl of TMB substrate was added to each well. After incubated at room temperature for 15-30 minutes, the plate was added with 100 μl of stop solution (1.0N HCl) to each well.
On the technique in general: ELISA stands for enzyme-linked immunosorbent assay.

The target of assay [4] is T3, hFc tagged monkey LAG-3 protein (cLAG-3-hFc protein) (monkey; human).
T3 construct: Made in HEK293 cells; also called monkey LAG-3 extracellular domain protein; not shown: human IgG Fc fragment (hFc) of the pCpC vector
T3 chain: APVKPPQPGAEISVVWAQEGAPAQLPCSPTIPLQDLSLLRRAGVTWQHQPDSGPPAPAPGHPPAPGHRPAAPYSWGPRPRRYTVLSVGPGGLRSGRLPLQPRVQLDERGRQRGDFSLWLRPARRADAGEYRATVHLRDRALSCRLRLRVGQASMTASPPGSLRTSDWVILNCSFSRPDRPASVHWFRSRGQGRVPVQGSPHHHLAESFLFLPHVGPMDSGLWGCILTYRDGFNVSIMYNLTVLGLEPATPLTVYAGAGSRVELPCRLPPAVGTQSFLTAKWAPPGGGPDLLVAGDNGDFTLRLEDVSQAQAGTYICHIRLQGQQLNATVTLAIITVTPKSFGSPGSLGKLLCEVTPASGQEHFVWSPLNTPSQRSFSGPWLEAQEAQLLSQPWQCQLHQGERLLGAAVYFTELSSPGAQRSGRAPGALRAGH
In words: ELISA, cLAG-3-hFc coated; 66.6670 nM. As to the method: as §2

Assay [5] deals with T4, mouse LAG-3 protein with hFc tag (mLAG-3-hFc protein) (mouse; human, UniProt Q61790 24-442).
T4 construct: Made in HEK293 cells; also called mouse LAG-3 extracellular domain protein; not shown: human IgG Fc fragment (hFc) of the pCpC vector
T4 sequence: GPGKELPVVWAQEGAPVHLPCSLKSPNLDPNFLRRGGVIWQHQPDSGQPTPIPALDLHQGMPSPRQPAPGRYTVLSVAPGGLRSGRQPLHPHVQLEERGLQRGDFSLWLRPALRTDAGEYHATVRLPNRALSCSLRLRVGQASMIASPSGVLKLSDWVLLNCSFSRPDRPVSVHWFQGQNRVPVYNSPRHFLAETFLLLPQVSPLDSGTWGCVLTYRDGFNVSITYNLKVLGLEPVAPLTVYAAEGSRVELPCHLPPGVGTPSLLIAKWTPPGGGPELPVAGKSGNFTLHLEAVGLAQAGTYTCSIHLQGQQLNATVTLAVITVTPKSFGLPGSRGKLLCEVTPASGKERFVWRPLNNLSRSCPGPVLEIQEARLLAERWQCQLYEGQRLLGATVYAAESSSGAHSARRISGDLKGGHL
The assay is described as follows: ELISA, mLAG-3-hFc coated; 6.6667 nM. Here is the method: as §2

B1: 405B8H3 (mouse antibody purified from hybridoma) (antibody, V domains shown)
VH: QVQLQQSGAELVRPGASVTLSCKASGYTFTDYEMHWVKQTPVHGLEWIGATDPETGNSAYNQKFKGKAIMTADKSSSTAYMELRSLTSEDSAVYYCISTGWNDWGQGTSLTVSS
VL: DIKMTQSPSSMYASLGERVTITCKASQDINSYLSWFQQKPGKSPKTLIYRADRLLDGVPSRFSGSGSGQDYSLTISSLEYGDMGIYYCLQYDEFPYTFGGGTKLEIK
notes: also called mAb103-405B8H3; 405B81-13
B1: in assay [1], the “Inhibition rate (%)” value was found to be 0.3%.

B2: 105F1E10 mouse-human chimeric antibody (antibody, V domains shown)
VH: EVQLQQSGPELVKPGASVKMSCRASGYTFTDFKMHWMKQSHGKSLEWIGYIAPNNGGTAYNQKFRGKATLTVNESSNTAYMELRSLTSEDSAVYYCVDWDDVDYWGQGTTLTVSS
VL: B1 VL with P40S, D52N, L55V, G81E, D92V, Y96L, G100A, I106L
notes: also called mAb009-105F1E10
For B2, the “Inhibition rate (%)” value in assay [2] was -0.3%.

B3: 405B8H3 mouse-human chimeric antibody (antibody, V domains shown)
VH: B1 VH
VL: B1 VL
notes: also called mAb103-405B8H3
Consider B3, for which, in assay [2], the “Inhibition rate (%)” value was found to be 17.5%.

B4: 105F1E10 (mouse antibody purified from hybridoma) (antibody, V domains shown)
VH: B2 VH
VL: B1 VL with P40S, D52N, L55V, G81E, D92V, Y96L, G100A, I106L
notes: also called mAb009-105F1E10
For the molecule B4, the “Inhibition rate (%)” value in assay [1] was -14%.

B5: 105F1E10 (LAG-3 mouse-human chimeric antibody) (antibody, V domains shown)
VH: B2 VH
VL: B1 VL with P40S, D52N, L55V, G81E, D92V, Y96L, G100A, I106L
Consider B5, for which the values for the OD450 in assay [3], in assay [4] and in assay [5] were 1.29 OD450, 3.59 OD450 and 0.14 OD450, respectively.

B6: 405B8H3 (LAG-3 mouse-human chimeric antibody) (antibody, V domains shown)
VH: B1 VH
VL: B1 VL
notes: also called mouse-human chimeric antibody 405B8H3
On to B6, for which the OD450 in assay [3] was 2.25 OD450; in assay [4], 3.46 OD450; in assay [5], 0.34 OD450.

B7: 409B11E12 mouse-human chimeric antibody (antibody, V domains shown)
VH: B1 VH with P41T, G56S, N57Y, M70L, S98A
VL: B1 VL with I2L, D52N, G81E
notes: also called mAb104-409B11E12
As to B7, the “Inhibition rate (%)” value in assay [2] stood at 24.4%.

B8: 409B11E12 (LAG-3 mouse-human chimeric antibody) (antibody, V domains shown)
VH: B1 VH with P41T, G56S, N57Y, M70L, S98A
VL: B1 VL with I2L, D52N, G81E
Consider B8, for which the figures for the OD450 in assay [3], in assay [4] and in assay [5] were 2.16 OD450, 3.44 OD450 and 0.31 OD450, respectively.

B9: 409B11E12 (mouse antibody purified from hybridoma) (antibody, V domains shown)
VH: B1 VH with P41T, G56S, N57Y, M70L, S98A
VL: B1 VL with I2L, D52N, G81E
notes: also called mAb104-409B11E12
Regarding B9, in assay [1], the “Inhibition rate (%)” value is -21.2%.

B10: 409D4E10 mouse-human chimeric antibody (antibody, V domains shown)
VH: B1 VH with Y27N, G56D, S58T, M70L, A72T, S98T, T99S
VL: B1 VL with D52N, G81E, D92N
notes: also called mAb112-409D4E10
Regarding B10, in assay [2], the “Inhibition rate (%)” value is 20.9%.

B11: 409D4E10 (mouse antibody purified from hybridoma) (antibody, V domains shown)
VH: B1 VH with Y27N, G56D, S58T, M70L, A72T, S98T, T99S
VL: B1 VL with D52N, G81E, D92N
notes: also called mAb112-409D4E10
Turning to B11, in assay [1], the “Inhibition rate (%)” value is -21.4%.

B12: 409D4E10 (LAG-3 mouse-human chimeric antibody) (antibody, V domains shown)
VH: B1 VH with Y27N, G56D, S58T, M70L, A72T, S98T, T99S
VL: B1 VL with D52N, G81E, D92N
B12: the values for the OD450 in assay [3], in assay [4] and in assay [5] were 3.1 OD450, 3.77 OD450 and 0.23 OD450, respectively.

B13: 556F6B8 mouse-human chimeric antibody (antibody, V domains shown)
VH: RVQLKQSGPGLVQPSQSLSITCTVSGFSLIKYGVHWVRQSPGEGLEWLGVIWRGGITDYNAAFMSRLSITKDNSKSQVFFKMNSLQADDTAIYYCAKWDGPLAMDYWGQGTSVTVSS
VL: DIVMTQSHKFLSTSVGDRVSITCKASQDVGTTVAWYQQKPGQSPKLLIYWASTRHTGVPDRFTGSGSGTDFTLTISNVQSEDLADYFCQQYSSYPYTFGGGTKLEIK
notes: also called mAb123-556F6B8; 556F8B8
In the case of B13, the “Inhibition rate (%)” value in assay [2] stood at 29.7%.

B14: 556F6B8 (mouse antibody purified from hybridoma) (antibody, V domains shown)
VH: B13 VH
VL: B13 VL
notes: also called mAb123-556F6B8
On to B14, for which the “Inhibition rate (%)” value in assay [1] is -10.7%.

B15: 556F6B8 (LAG-3 mouse-human chimeric antibody) (antibody, V domains shown)
VH: B13 VH
VL: B13 VL
notes: also called 556F8B8
As to B15, the figures for the OD450 in assay [3], in assay [4] and in assay [5] were 1.94 OD450, 3.72 OD450 and 0.36 OD450, respectively.

The record behind these values is patent US20210155689A1 (SHANGHAI PHARMAEXPLORER, published 2021).
